According to patent publication US20030044400A1, “Composition and method for treating cells” (priority 2001, published 2003):

How the values were obtained:
[1] = test system: all the cell lines; experiment: Zn or Ba alone on the cell lines; type: cell-based; conditions: all concentrations tested (up to 66 uM)
Experimental: (§1) Fetuin purified by modified Spiro method was further incubated with Zinc Acetate or Barium Acetate (0.25M) at room temperature for 1 hr. Free ions were removed by repetitive concentration against 20 volumes of PBS three times. Fetuin, Zn-charged fetuin and Ba-charged fetuin (5 uM) and PBS were then separately incubated with LNCaP cells for 4 hr. Percent of cells under apoptosis was determined by Hoechst staining and confirmed by MTS assay. Each data represents the average of two assays. Zn-charged or Ba-charged fetuin may contain free Zn or Ba (about 30 uM). However, all the cell lines are not affected by Zn or Ba alone at all concentrations tested (up to 66 uM).

[2] = test system: LNCaP cells; experiment: Fetuin-induced apoptosis, Hoechst staining confirmed by MTS assay; type: cell-based, Human; conditions: for apoptosis-inducing activity in LNCaP cells: fetal vs mature fetuins at the same concentration
Experimental: The purified fetuin was tested on various cancer cell lines. […] The DNA condensation and breakage of nuclei which are the characteristics for apoptosis were observed by staining the cell with Hoechst dye at 0.1 ug/ml.
as §1
Various concentrations of Zn-charged fetuin prepared as described were incubated with cell lines for 6 hr. Percent of cell under apoptosis was determined by Hoechst staining and confirmed by MTS assay. The concentration of Zn-charged fetuin for the induction of 50% of cells under apoptosis (LD50) was determined. Each data represents the average of three assays.

## CC(=O)[O-].CC(=O)[O-].[Zn+2] [Zn]
[1]
  effect of free ion alone on the cell lines: not affected

## CC(=O)[O-].CC(=O)[O-].[Ba+2] [Ba]
[1]
  effect of free ion alone on the cell lines: not affected

B1: human fetuin: human fetuin (Alpha 2-HS glycoprotein) isolated from adult human serum (protein, UniProt P02765 19-300; P02765 341-367, looked up)
Alpha-2-HS-glycoprotein chain … 1: APHGPGLIYRQPNCDDPETEEAALVAIDYINQNLPWGYKHTLNQIDEVKVWPQQPSGELFEIEIDTLETTCHVLDPTPVARCSVRQLKEHAVEGDCDFQLLKLDGKFSVVYAKCDSSPDSAEDVRKVCQDCPLLAPLNDTRVVHAAKAALAAFNAQNNGSNFQLEEISRAQLVPLPPSTYVEFTVSGTDCVAKEATEAAKCNLLAEKQYGFCKATLSEKLGGAEVAVTCMVFQTQPVSSQPQPEGANEAVPTPVVDPDAPPSPPLGAPGLPPAGSPPDSHVL
Alpha-2-HS-glycoprotein chain … 2: TVVQPSVGAAAGPVVPPCPGRIRHFKV
[2]
  apoptosis-inducing activity in LNCaP cells: fails to induce apoptosis

B2: commercial fetuin: commercial fetuin purchased from Sigma, prepared by the Pederson Method (protein, UniProt P12763 19-359, looked up)
Alpha-2-HS-glycoprotein: IPLDPVAGYKEPACDDPDTEQAALAAVDYINKHLPRGYKHTLNQIDSVKVWPRRPTGEVYDIEIDTLETTCHVLDPTPLANCSVRQQTQHAVEGDCDIHVLKQDGQFSVLFTKCDSSPDSAEDVRKLCPDCPLLAPLNDSRVVHAVEVALATFNAESNGSYLQLVEISRAQFVPLPVSVSVEFAVAATDCIAKEVVDPTKCNLLAEKQYGFCKGSVIQKALGGEDVRVTCTLFQTQPVIPQPQPDGAEAEAPSAVPDAAGPTPSAAGPPVASVVVGPSVVAVPLPLHRAHYDLRHTFSGVASVESSSGEAFHVGKTPIVGQPSIPGGPVRLCPGRIRYFKI
[2]; Pederson Method (Sigma) vs modified Spiro method
  apoptotic activity by method of preparation: did not show apoptotic activity

B3: mature fetuin: fetuin isolated from mature bovine serum (protein, UniProt P12763 19-359, looked up)
Alpha-2-HS-glycoprotein: IPLDPVAGYKEPACDDPDTEQAALAAVDYINKHLPRGYKHTLNQIDSVKVWPRRPTGEVYDIEIDTLETTCHVLDPTPLANCSVRQQTQHAVEGDCDIHVLKQDGQFSVLFTKCDSSPDSAEDVRKLCPDCPLLAPLNDSRVVHAVEVALATFNAESNGSYLQLVEISRAQFVPLPVSVSVEFAVAATDCIAKEVVDPTKCNLLAEKQYGFCKGSVIQKALGGEDVRVTCTLFQTQPVIPQPQPDGAEAEAPSAVPDAAGPTPSAAGPPVASVVVGPSVVAVPLPLHRAHYDLRHTFSGVASVESSSGEAFHVGKTPIVGQPSIPGGPVRLCPGRIRYFKI
[2]
  apoptosis-inducing activity in LNCaP cells: no activity inducing apoptosis
